# Test results taken from US20130089544A1.
# What was measured:
# [1] = biological target: human ErbB2 ECD-myc/His fusion protein (human) (UniProt P04626); assay: SPR, Biacore T100 high resolution; mAb captured on goat anti-human IgG, hHer-2(ECD)cMyc injected; 1:1 fit
# [2] = biological target: human ErbB2, full length, on cells (human) (UniProt P04626); assay: cell-based or functional assay
substance,measurement,setting,value
chimeric anti-hErbB2 antibody 2C4,Kd,[1],3.2 nM
same,"% Inhibition @10 µg/ml, Heregulin-induced MCF7 cell proliferation",[2],90%
same,"EC50 (ng/ml) n1, inhibition of Heregulin-induced ErbB2 phosphorylation in MCF7 cells",[2],43.6 ng/mL
same,"EC50 (ng/ml) n2, inhibition of Heregulin-induced ErbB2 phosphorylation in MCF7 cells",[2],14.6 ng/mL
same,"EC50 (ng/ml), inhibition of Heregulin-induced MCF7 cell proliferation",[2],404 ng/mL
same,"EC50 (ng/ml), inhibition of SKBR3 cell proliferation",[2],> 36000 ng/mL
same,"N1 % Inhibition @40 µg/ml, BT474 cell proliferation",[2],-9%
same,"N1 EC50 (ng/ml), inhibition of BT474 cell proliferation",[2],> 40000 ng/mL
same,"N2 EC50 (ng/ml), inhibition of BT474 cell proliferation",[2],4750 ng/mL
